# T1: human DR3 (full length, on cells) (human) (UniProt Q93038)
# T1 sequence: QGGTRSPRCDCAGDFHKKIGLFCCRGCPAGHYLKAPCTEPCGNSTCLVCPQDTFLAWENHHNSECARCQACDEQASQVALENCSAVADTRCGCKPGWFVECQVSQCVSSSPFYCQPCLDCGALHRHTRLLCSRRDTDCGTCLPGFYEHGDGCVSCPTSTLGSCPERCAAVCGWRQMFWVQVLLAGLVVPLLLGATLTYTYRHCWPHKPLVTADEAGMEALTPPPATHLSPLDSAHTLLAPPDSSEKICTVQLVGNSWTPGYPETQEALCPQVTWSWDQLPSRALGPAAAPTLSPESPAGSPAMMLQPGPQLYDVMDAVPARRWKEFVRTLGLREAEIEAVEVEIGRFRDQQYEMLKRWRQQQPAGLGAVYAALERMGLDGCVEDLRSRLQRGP
# B1: TL1A (R&D Systems) (ligand, UniProt O95150 72-251, looked up)
# chain: LKGQEFAPSHQQVYAPLRADGDKPRAHLTVVRQTPTQHFKNQFPALHWEHELGLAFTKNRMNYTNKFLLIPESGDYFIYSQVTFRGMTSECSEIRQAGRPNKPDSITVVITKVTDSYPEPTQLLMGTKSVCEVGSNWFQPIYLGAMFSLQEGDKLMVNVSDISLVDYTKEDKTFFGAFLL
# Molecular target: T1, human DR3 (full length, on cells) (human)
# Test: cell-based or functional assay
binder,measurement,value
B1,"fold response, DR3 reporter, 40 ng/ml TL1A alone",32.8 fold
